Source: publication PMC4003243 (The Journal of Cell Biology, 2014)
Where no end group is shown, it is not given here.

Molecular target: His-tagged talin head (1–406 aa) (human, UniProt Q9Y490 1-406)
Experiment: BLI

Chain of His-tagged talin head (1–406 aa) (Q9Y490 1-406): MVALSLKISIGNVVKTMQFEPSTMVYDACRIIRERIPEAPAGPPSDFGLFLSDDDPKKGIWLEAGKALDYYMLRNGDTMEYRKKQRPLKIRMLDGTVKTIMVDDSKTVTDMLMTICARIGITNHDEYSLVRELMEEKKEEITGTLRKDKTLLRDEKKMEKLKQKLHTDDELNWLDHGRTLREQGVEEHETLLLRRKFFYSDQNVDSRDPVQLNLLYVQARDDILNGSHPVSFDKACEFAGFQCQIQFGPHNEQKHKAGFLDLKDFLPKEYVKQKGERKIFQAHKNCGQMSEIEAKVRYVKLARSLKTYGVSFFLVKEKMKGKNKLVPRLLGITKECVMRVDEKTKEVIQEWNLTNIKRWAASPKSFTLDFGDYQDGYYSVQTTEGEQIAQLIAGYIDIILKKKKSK

Binder | fold higher affinity over wild-type β3-tail | binding result
KLLITIHDRKEFAKFEEERARAKWVENPLYKEATSTFTNITYRGT (domain or fragment, mouse, UniProt O54890 741-787, looked up, also: GST fusion) [GST–β3-tail, β3-VE chimera] | ~20 fold | –
KLLITIHDRKEFAKFEEERARAKWDTANNPLYKEATSTFTNITYRGT (domain or fragment, mouse, UniProt O54890 741-787, looked up, also: GST fusion) [GST–β3-tail (716–762 aa), wild type] | – | binds
